{"source": "the Human Domainome abundance scans (Beltran et al. 2025)", "parents": {"B1": {"name": "Gamma-crystallin S, residues 96 to 176; numbered along this chain, P22914 (parent)", "chain": "IQIFEKGDFSGQMYETTEDCPSIMEQFHMREIHSCKVLEGVWIFYELPNYRGRQYLLDKKEYRKPIDWGAASPAVQSFRRI"}}, "note": "± gives the uncertainty stated by the source.", "data": [{"variants_of": "B1", "assay": "abundance fitness (aPCA) (normalised: wild type 0, dead -1); higher = more abundant; growth selection in yeast, the domain comes from the species named", "settings": "Homo sapiens", "values": [{"variant": "IQIFEKGDFSGQMYETTEDCPSIMEQFHMREIHSCKVLEGVWIFYELPNYRGRQSLLDKKEYRKPIDWGAASPAVQSFRRI", "abundance fitness": "-0.437 ± 0.18"}, {"variant": "IQIFEKGDFSGQMYETTEDCPSIMEQFHMREIHSCKVLEGVWIFYELPNYRGRQVLLDKKEYRKPIDWGAASPAVQSFRRI", "abundance fitness": "-0.128 ± 0.23"}, {"variant": "IQIFEKGDFSGQMYETTEDCPSIMEQFHMREIHSCKVLEGVWIFYELPNYRGRQWLLDKKEYRKPIDWGAASPAVQSFRRI", "abundance fitness": "0.014 ± 0.18"}, {"variant": "IQIFEKGDFSGQMYETTEDCPSIMEQFHMREIHSCKVLEGVWIFYELPNYRGRQYCLDKKEYRKPIDWGAASPAVQSFRRI", "abundance fitness": "-0.136 ± 0.42"}, {"variant": "IQIFEKGDFSGQMYETTEDCPSIMEQFHMREIHSCKVLEGVWIFYELPNYRGRQYDLDKKEYRKPIDWGAASPAVQSFRRI", "abundance fitness": "0.309 ± 0.29"}, {"variant": "IQIFEKGDFSGQMYETTEDCPSIMEQFHMREIHSCKVLEGVWIFYELPNYRGRQYELDKKEYRKPIDWGAASPAVQSFRRI", "abundance fitness": "0.115 ± 0.2"}, {"variant": "IQIFEKGDFSGQMYETTEDCPSIMEQFHMREIHSCKVLEGVWIFYELPNYRGRQYFLDKKEYRKPIDWGAASPAVQSFRRI", "abundance fitness": "0.04 ± 0.26"}, {"variant": "IQIFEKGDFSGQMYETTEDCPSIMEQFHMREIHSCKVLEGVWIFYELPNYRGRQYGLDKKEYRKPIDWGAASPAVQSFRRI", "abundance fitness": "0.064 ± 0.17"}, {"variant": "IQIFEKGDFSGQMYETTEDCPSIMEQFHMREIHSCKVLEGVWIFYELPNYRGRQYKLDKKEYRKPIDWGAASPAVQSFRRI", "abundance fitness": "-0.161 ± 0.43"}, {"variant": "IQIFEKGDFSGQMYETTEDCPSIMEQFHMREIHSCKVLEGVWIFYELPNYRGRQYMLDKKEYRKPIDWGAASPAVQSFRRI", "abundance fitness": "-0.228 ± 0.35"}, {"variant": "IQIFEKGDFSGQMYETTEDCPSIMEQFHMREIHSCKVLEGVWIFYELPNYRGRQYPLDKKEYRKPIDWGAASPAVQSFRRI", "abundance fitness": "0.166 ± 0.36"}, {"variant": "IQIFEKGDFSGQMYETTEDCPSIMEQFHMREIHSCKVLEGVWIFYELPNYRGRQYQLDKKEYRKPIDWGAASPAVQSFRRI", "abundance fitness": "-0.052 ± 0.17"}, {"variant": "IQIFEKGDFSGQMYETTEDCPSIMEQFHMREIHSCKVLEGVWIFYELPNYRGRQYRLDKKEYRKPIDWGAASPAVQSFRRI", "abundance fitness": "0.191 ± 0.27"}, {"variant": "IQIFEKGDFSGQMYETTEDCPSIMEQFHMREIHSCKVLEGVWIFYELPNYRGRQYSLDKKEYRKPIDWGAASPAVQSFRRI", "abundance fitness": "-0.031 ± 0.17"}, {"variant": "IQIFEKGDFSGQMYETTEDCPSIMEQFHMREIHSCKVLEGVWIFYELPNYRGRQYTLDKKEYRKPIDWGAASPAVQSFRRI", "abundance fitness": "-0.04 ± 0.42"}, {"variant": "IQIFEKGDFSGQMYETTEDCPSIMEQFHMREIHSCKVLEGVWIFYELPNYRGRQYVLDKKEYRKPIDWGAASPAVQSFRRI", "abundance fitness": "-0.133 ± 0.44"}, {"variant": "IQIFEKGDFSGQMYETTEDCPSIMEQFHMREIHSCKVLEGVWIFYELPNYRGRQYWLDKKEYRKPIDWGAASPAVQSFRRI", "abundance fitness": "0.047 ± 0.14"}, {"variant": "IQIFEKGDFSGQMYETTEDCPSIMEQFHMREIHSCKVLEGVWIFYELPNYRGRQYLADKKEYRKPIDWGAASPAVQSFRRI", "abundance fitness": "-0.039 ± 0.16"}, {"variant": "IQIFEKGDFSGQMYETTEDCPSIMEQFHMREIHSCKVLEGVWIFYELPNYRGRQYLCDKKEYRKPIDWGAASPAVQSFRRI", "abundance fitness": "-0.273 ± 0.33"}, {"variant": "IQIFEKGDFSGQMYETTEDCPSIMEQFHMREIHSCKVLEGVWIFYELPNYRGRQYLFDKKEYRKPIDWGAASPAVQSFRRI", "abundance fitness": "-0.311 ± 0.26"}, {"variant": "IQIFEKGDFSGQMYETTEDCPSIMEQFHMREIHSCKVLEGVWIFYELPNYRGRQYLGDKKEYRKPIDWGAASPAVQSFRRI", "abundance fitness": "0.026 ± 0.12"}, {"variant": "IQIFEKGDFSGQMYETTEDCPSIMEQFHMREIHSCKVLEGVWIFYELPNYRGRQYLKDKKEYRKPIDWGAASPAVQSFRRI", "abundance fitness": "-0.414 ± 0.45"}, {"variant": "IQIFEKGDFSGQMYETTEDCPSIMEQFHMREIHSCKVLEGVWIFYELPNYRGRQYLMDKKEYRKPIDWGAASPAVQSFRRI", "abundance fitness": "0.17 ± 0.18"}, {"variant": "IQIFEKGDFSGQMYETTEDCPSIMEQFHMREIHSCKVLEGVWIFYELPNYRGRQYLNDKKEYRKPIDWGAASPAVQSFRRI", "abundance fitness": "-0.526 ± 0.38"}, {"variant": "IQIFEKGDFSGQMYETTEDCPSIMEQFHMREIHSCKVLEGVWIFYELPNYRGRQYLPDKKEYRKPIDWGAASPAVQSFRRI", "abundance fitness": "-0.517 ± 0.2"}, {"variant": "IQIFEKGDFSGQMYETTEDCPSIMEQFHMREIHSCKVLEGVWIFYELPNYRGRQYLQDKKEYRKPIDWGAASPAVQSFRRI", "abundance fitness": "-0.491 ± 0.37"}, {"variant": "IQIFEKGDFSGQMYETTEDCPSIMEQFHMREIHSCKVLEGVWIFYELPNYRGRQYLRDKKEYRKPIDWGAASPAVQSFRRI", "abundance fitness": "-0.288 ± 0.11"}, {"variant": "IQIFEKGDFSGQMYETTEDCPSIMEQFHMREIHSCKVLEGVWIFYELPNYRGRQYLSDKKEYRKPIDWGAASPAVQSFRRI", "abundance fitness": "0.171 ± 0.15"}, {"variant": "IQIFEKGDFSGQMYETTEDCPSIMEQFHMREIHSCKVLEGVWIFYELPNYRGRQYLTDKKEYRKPIDWGAASPAVQSFRRI", "abundance fitness": "-0.078 ± 0.16"}, {"variant": "IQIFEKGDFSGQMYETTEDCPSIMEQFHMREIHSCKVLEGVWIFYELPNYRGRQYLVDKKEYRKPIDWGAASPAVQSFRRI", "abundance fitness": "0.045 ± 0.16"}, {"variant": "IQIFEKGDFSGQMYETTEDCPSIMEQFHMREIHSCKVLEGVWIFYELPNYRGRQYLLAKKEYRKPIDWGAASPAVQSFRRI", "abundance fitness": "0.04 ± 0.12"}, {"variant": "IQIFEKGDFSGQMYETTEDCPSIMEQFHMREIHSCKVLEGVWIFYELPNYRGRQYLLCKKEYRKPIDWGAASPAVQSFRRI", "abundance fitness": "0.054 ± 0.29"}, {"variant": "IQIFEKGDFSGQMYETTEDCPSIMEQFHMREIHSCKVLEGVWIFYELPNYRGRQYLLEKKEYRKPIDWGAASPAVQSFRRI", "abundance fitness": "0.085 ± 0.3"}, {"variant": "IQIFEKGDFSGQMYETTEDCPSIMEQFHMREIHSCKVLEGVWIFYELPNYRGRQYLLFKKEYRKPIDWGAASPAVQSFRRI", "abundance fitness": "-0.099 ± 0.28"}]}]}
